How the values were obtained:
TDG WT = TDG WT (human, UniProt Q13569 1-410); experiment: EMSA; 20 mM HEPES pH 7.3, 1 mM EDTA, 10 mM (NH4)2SO4, 1 mM DTT, 0.2% Tween-20, 30 mM KCl; 2 nM DNA, 30 min at room temperature; 6% native PAGE at 4 C; details: protein: recombinant; tags: N-terminal 6xHis (pET28a); label: 5'-32P on the template oligonucleotide; blunt
TDG G199S = TDG G199S (human (rs4135113 variant), UniProt Q13569 1-410, G199S); experiment: as above; details: protein: recombinant; tags: N-terminal 6xHis (pET28a); label: 5'-32P on the template oligonucleotide; blunt
TDG G199S, sequence (Q13569 whole entry G199S): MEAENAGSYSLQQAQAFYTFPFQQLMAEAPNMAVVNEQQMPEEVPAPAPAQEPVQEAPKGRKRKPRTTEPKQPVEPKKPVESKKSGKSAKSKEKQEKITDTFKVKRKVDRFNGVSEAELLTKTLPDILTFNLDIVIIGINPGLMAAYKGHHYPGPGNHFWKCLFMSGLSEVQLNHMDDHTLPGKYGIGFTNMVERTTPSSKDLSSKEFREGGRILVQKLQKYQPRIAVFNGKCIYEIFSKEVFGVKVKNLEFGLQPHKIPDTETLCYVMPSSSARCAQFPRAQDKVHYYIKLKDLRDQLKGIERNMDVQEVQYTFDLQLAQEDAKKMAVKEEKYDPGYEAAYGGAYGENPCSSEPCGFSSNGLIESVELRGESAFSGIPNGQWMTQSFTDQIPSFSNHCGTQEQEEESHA

TDG WT, sequence (Q13569 whole entry): as the sequence (Q13569 whole entry G199S) above, with S199G counted along it

B1: 28-mer 5-FU:A (dsDNA)
DNA 1: CAGCTCTGTACATGAGCAGTGGTGACAC
DNA 2: GTGTCACCACTGCTCAUGTACAGAGCTG
modifications: 5-fluorouracil (X, written U) at position 17 of strand 2, opposite A12 of strand 1
TDG WT
  Kd: 77 ± 13 nM
TDG G199S
  Kd: 41 ± 5 nM

From publication PMC4222680, “A Germline Polymorphism of Thymine DNA Glycosylase Induces Genomic Instability and Cellular Transformation”
